Data on three substances can be found in US12465660B2, “Compositions and methods for cancer imaging and radiotherapy” (VECT-HORUS, priority 2017, dated 2025).

Positions of bridges follow the written chain, without caps; N, C: chain ends. Non-standard residues stand in square brackets, D forms with d. Primed or numbered codes have the meaning given here. No end group written: not given here. *: point of attachment. DOTA = O=C(O)CN1CCN(CC(=O)O)CCN(CC(=O)*)CCN(CC(=O)O)CC1; NODAGA′ = not defined here; PEG12′ = not defined here; βAla = NCCC(=O)O

Assay [1] has as its target T1, Recombinant human LDLR (His-tagged) (Homo sapiens, UniProt P01130).
T1 construct: purchased Sino Biological (Beijing, China)
Briefly: SPR affinity of MG04/VH-DO35, CH44, FG770, CH40 and FG769 for LDLR (Biacore T200). The assay is classed as binding. As to conditions: 25° C. How it is done:
(§1) Recombinant human LDLR (His-tagged) was purchased from Sino Biological (Beijing, China). Interaction of conjugates with LDLR was tested at 25° C. using a Biacore T200 (GE Healthcare) and 50 mM HEPES-NaOH pH7.4, 150 mM NaCl, 0.005% Tween-20, 50 μM EDTA as running buffer. hLDLR was immobilized on a NiHC sensor chip (Xantec, Dusseldorf, Germany) at a density of 35-60 fmol/mm^2. Binding of conjugates to LDLR-coated flow cells was corrected for non-specific binding to uncoated flow cells. The single-cycle kinetic method was used to measure the affinity of ligands with LDLR. Ligands were diluted in running buffer and injected sequentially 2 minutes at 30 μl/min using increasing concentrations. Blank run injections of running buffer were performed in the same conditions before ligand injection. Double-subtracted sensorgrams were globally fitted with the 1:1 Langmuir binding model from Biacore T200 Evaluation version 2.0.

For assay [2], the target named is T1, Recombinant human LDLR (His-tagged). Briefly: SPR affinity of conjugates A, B, C and D for LDLR (Biacore T200). Format: binding. The note with it: 25° C. The procedure:
as §1

Assay [3] concerns CHO-hLDLR-GFP cells. Put plainly: Binding/endocytosis of fluorescent conjugates by LDLR expressing cells (confocal microscopy). The note with it: live cells, 1 hour at 37° C. The assay is classed as cell-based, Chinese Hamster. The text has this:
In these experiments, with regards to FIG. 2, the LDLR-GFP signal is visualized in column 2, the conjugate signal is either directly visualized in column 4 using the A680 fluorescence or in column 3 using an anti-hFc-A594 conjugated secondary antibody. Cell nuclei were stained in blue with Hoechst and its signal can be visualized in column 1. The co-labelling of LDLR-GFP and conjugates can be visualized as a highlight signal in column 5 on the merge image.

T1 sequence (P01130 22-860): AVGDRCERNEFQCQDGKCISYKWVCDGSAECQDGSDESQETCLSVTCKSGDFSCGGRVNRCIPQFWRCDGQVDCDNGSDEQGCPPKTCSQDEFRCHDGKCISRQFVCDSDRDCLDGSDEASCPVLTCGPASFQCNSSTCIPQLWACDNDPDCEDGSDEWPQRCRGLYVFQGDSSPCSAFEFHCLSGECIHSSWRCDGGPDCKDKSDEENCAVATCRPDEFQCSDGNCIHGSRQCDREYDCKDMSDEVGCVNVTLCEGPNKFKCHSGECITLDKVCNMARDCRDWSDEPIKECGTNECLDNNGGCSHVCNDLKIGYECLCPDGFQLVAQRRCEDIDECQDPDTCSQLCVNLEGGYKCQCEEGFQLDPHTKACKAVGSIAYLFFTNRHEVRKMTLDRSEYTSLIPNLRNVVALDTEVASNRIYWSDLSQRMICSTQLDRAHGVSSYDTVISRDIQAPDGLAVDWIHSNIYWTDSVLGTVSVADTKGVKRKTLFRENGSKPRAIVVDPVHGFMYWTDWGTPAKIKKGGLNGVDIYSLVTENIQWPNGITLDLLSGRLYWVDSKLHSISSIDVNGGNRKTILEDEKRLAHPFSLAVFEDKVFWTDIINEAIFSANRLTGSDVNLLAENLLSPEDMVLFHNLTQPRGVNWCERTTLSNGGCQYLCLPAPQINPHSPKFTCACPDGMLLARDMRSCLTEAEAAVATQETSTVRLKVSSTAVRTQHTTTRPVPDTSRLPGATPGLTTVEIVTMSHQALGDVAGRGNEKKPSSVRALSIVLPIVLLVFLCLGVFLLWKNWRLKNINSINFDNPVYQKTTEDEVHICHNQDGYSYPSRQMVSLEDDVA

As for “DOTA-βAla-PEG12-SEQ ID NO: 13-NH2 ({DOTA-βAla-PEG12′}-[dC]RPLGRMC-NH2; disulfide 1-8) [FG769, scrambled counterpart of FG770]”, in assay [1], the KD result is listed as “No Binding”.
As to “Fc-Peptide D-A680 (CRMLGRPC; cysteine pairing not given here; also: fused to a dimerising Fc or GST) [Conjugate D, control]”, the KD entry in assay [2] is recorded as “No Binding”. Further, in assay [3], the “binding to and endocytosis by CHO-hLDLR-GFP cells” value is reported as “are not”.
Consider “NODAGA-βAla-PEG12-SEQ ID NO: 13-NH2 ({NODAGA′-βAla-PEG12′}-[dC]RPLGRMC-NH2; disulfide 1-8) [CH40, scrambled counterpart of CH44]”, for which the KD entry in assay [1] was “No Binding”.
